From patent US20240279310A1 come the findings set out here.

Where two headings read alike, the source gives them in different places.

Assay in all cases: cell-based or functional assay
The target in experiment [1] is recombinant human APRIL (Tonbo Biosciences) (human) (UniProt O75888).
Experiment [2] deals with APRIL+BAFF (15 nM APRIL+10 nM BAFF) in combination.
Experiment [3] shares this target. The source holds these as a separate data set.

Chain of recombinant human APRIL (Tonbo Biosciences) (human) (O75888 105-250 limits assumed): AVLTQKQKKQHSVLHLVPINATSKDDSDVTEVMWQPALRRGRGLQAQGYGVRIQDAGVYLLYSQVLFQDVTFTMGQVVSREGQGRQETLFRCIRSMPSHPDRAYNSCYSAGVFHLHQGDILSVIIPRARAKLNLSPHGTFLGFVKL

B1: anti-APRIL mAb BION-1301 (antibody, INN chains, looked up, V domains shown)
VH: QVQLVQSGAEVKKPGASVKVSCKASGYTFTDYTIHWVRQATGQGLEWMGWIYPLRGSINYAQKFQGRVTMTADKSISTVYMELSSLRSEDTAVYFCARHGAYYSNAFDYWGQGTLVTVSS
VL: EIVMTQSPATLSVSPGERATLSCRASESVDNDGIRFLHWYQQKPGQAPRLLIYRASTRATGIPARFSGSGSRTEFTLTISSLQSEDFAVYYCQQSNKDPYTFGGGTKVEIK
Turning to B1, the IC50 (pM) APRIL in experiment [1] was found to be 4900 pM. Besides, the IC50 (pM) BAFF + APRIL in experiment [2] is above 100000 pM.

B2: atacicept (WT TACI-Fc sequences corresponding to atacicept, containing WT TACI 30-110; SEQ ID NO:132) (Fc fusion)
chain: AMRSCPEEQYWDPLLGTCMSCKTICNHQSQRTCAAFCRSLSCRKEQGKFYDHLLRDCISCASICGQHPKQCAYFCENKLRSEPKSSDKTHTCPPCPAPEAEGAPSVFLFPPKPKDTLMISRTPEVTCVVVDVSHEDPEVKFNWYVDGVEVHNAKTKPREEQYNSTYRVVSVLTVLHQDWLNGKEYKCKVSNKALPSSIEKTISKAKGQPREPQVYTLPPSRDELTKNQVSLTCLVKGFYPSDIAVEWESNGQPENNYKTTPPVLDSDGSFFLYSKLTVDKSRWQQGNVFSCSVMHEALHNHYTQKSLSLSPGK
Take B2: in experiment [3], the IC50 (pM) BAFF + APRIL was determined as 7720 pM.

B3: belimumab, anti-BAFF monoclonal antibody (antibody, INN chains, looked up, V domains shown)
VH: QVQLQQSGAEVKKPGSSVRVSCKASGGTFNNNAINWVRQAPGQGLEWMGGIIPMFGTAKYSQNFQGRVAITADESTGTASMELSSLRSEDTAVYYCARSRDLLLFPHHALSPWGRGTMVTVSS
VL: SSELTQDPAVSVALGQTVRVTCQGDSLRSYYASWYQQKPGQAPVLVIYGKNNRPSGIPDRFSGSSSGNTASLTITGAQAEDEADYYCSSRDSSGNHWVFGGGTELTVLG
Take B3: in experiment [2], the IC50 (pM) BAFF + APRIL was above 100000 pM.

B4: 26 TACI CRD2-Fc (TACI vTD SEQ ID NO:26, K77E/F78Y/Y102D; Fc fusion SEQ ID NO: 167) (Fc fusion)
chain: SLSCRKEQGEYYDHLLRDCISCASICGQHPKQCADFCENKLRSGSGGGGSEPKSSDKTHTCPPCPAPEAEGAPSVFLFPPKPKDTLMISRTPEVTCVVVDVSHEDPEVKFNWYVDGVEVHNAKTKPREEQYNSTYRVVSVLTVLHQDWLNGKEYKCKVSNKALPAPIEKTISKAKGQPREPQVYTLPPSRDELTKNQVSLTCLVKGFYPSDIAVEWESNGQPENNYKTTPPVLDSDGSFFLYSKLTVDKSRWQQGNVFSCSVMHEALHNHYTQKSLSLSPG
For B4, the IC50 (pM) BAFF + APRIL in experiment [3] worked out at 1390 pM.
